Among the data in paper PMC3480970 (Molecular microbiology, 2012) are Kd and percent of chemoreceptor bound values, retold here.

One experiment has as its target GST-CheD (B. subtilis) (UniProt P40404). As to the kind of experiment: pull-down.
Experiment [1] addresses CheC (Thermotoga maritima) (UniProt Q9X006). As to the kind of experiment: ITC. Conditions: cited from earlier work.
Experiment [2] deals with T1, 6xHis-McpC cytoplasmic fragment (wild type, unmodified) (B. subtilis, UniProt P54576 298-655).
T1 sequence (looked up): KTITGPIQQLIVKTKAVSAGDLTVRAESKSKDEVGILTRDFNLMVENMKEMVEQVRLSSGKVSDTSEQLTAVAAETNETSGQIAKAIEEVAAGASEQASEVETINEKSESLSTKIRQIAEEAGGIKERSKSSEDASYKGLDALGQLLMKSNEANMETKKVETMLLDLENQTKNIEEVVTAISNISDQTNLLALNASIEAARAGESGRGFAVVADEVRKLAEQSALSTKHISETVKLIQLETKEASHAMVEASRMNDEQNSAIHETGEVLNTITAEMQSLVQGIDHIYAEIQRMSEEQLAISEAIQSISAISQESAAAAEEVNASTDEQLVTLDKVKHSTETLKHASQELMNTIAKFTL
The experiment can be described thus: pull-down.

CheC (Thermotoga maritima), sequence (Q9X006 whole entry, the tested form may be a part): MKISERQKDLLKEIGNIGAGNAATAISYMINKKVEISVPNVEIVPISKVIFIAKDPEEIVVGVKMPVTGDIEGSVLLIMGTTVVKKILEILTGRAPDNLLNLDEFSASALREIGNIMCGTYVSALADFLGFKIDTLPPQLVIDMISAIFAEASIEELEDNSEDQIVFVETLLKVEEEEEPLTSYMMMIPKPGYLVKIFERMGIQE

A word on the Kd: it is a measure of binding affinity in units of concentration. For “Deamidated (Q609E) McpC cytoplasmic chemoreceptor fragment (from UniProt P54576 1-655) (domain or fragment)”, in the experiment with GST-CheD (B. subtilis), the Kd is 117 µM and the percent of chemoreceptor bound was determined as 13.2%.
Take CheD (from UniProt Q9X005): the Kd in experiment [1] is 1 µM.

B1: GST-CheD (enzyme, B. subtilis, UniProt P40404 1-166, looked up)
chain: MSTTEAVVIKVGIADVKIARFPDTIRTSGLGSCVGLVLYDKEKQTAGLVHVMLPDSTLSKTAELNRAKYADTAVQTTIDMLIEAGCRKFALKAKLAGGSEMFKFKSTNDLMKIGPRNVLAIKEQLSLFNIPIISEDTGGSSGRTIEFEPKSCMLHIRTVKQGEKTI
Consider B1, for which the Kd in experiment [2] turned out to be 202 µM.
